Results reported in PMC4364678, “Biosynthesis of the Diterpenoid Lycosantalonol via Nerylneryl Diphosphate in Solanum lycopersicum” (PLoS ONE, 2015).

Columns and labels:
purified protein [1] = substrate: CC(C)=CCC/C(C)=C\CC/C(C)=C\COP(=O)(O)OP(=O)(O)O; test: purified protein; format: biochemical, Solanum lycopersicum; conditions: 10-80 μM zzFPP at 50 μM 14C-IPP
purified protein [2] = substrate: C=C(C)CCO[P@@](=O)(O)OP(=O)(O)O; test: purified protein; conditions: 5-80 μM 14C-IPP at 150 μM zzFPP; labelled compound

B1: CPT2 (Solanum lycopersicum) (protein)
chain: MSDRGLSKISCSLSLQTEKLRYDNDDNDDLELHEELIPKHIALIMDGNRRWAKAKGLEVYEGHKLIIPKLKEICDISSKLGIQVITAFAFSTENWKRSKEEVDFLMQLFEEFFNEFLRFGVRVSVIGCKSNLPMTLQKCIALTEETTKGNKGLHLVIALNYGGYYDILQATKSIVNKAMNGLLDVEDINKNLFEQELESKCPNPDLLIRTGGEQRVSNFLLWQLAYTEFYFTNTLFPDFGEKDLKKAILNFQQRHRRFGGHTY
notes: N-terminal putative transit peptide (51 residues, 153 nt) deleted; vector pEXP5-CT/TOPO; E. coli BL21 (DE3)
Purified protein [1]
  Km: 22.9 ± 1.1 µM
  kcat: 0.0026 ± 0.0001 s⁻¹
  kcat/Km: 110 ± 10 M⁻¹ s⁻¹
Purified protein [2]
  Km: 3.8 ± 0.3 µM
  kcat: 0.0026 s⁻¹
  kcat/Km: 680 M⁻¹ s⁻¹
